Common to all, as to assay: SEC
The target of assay [1] is His6 tagged recombinant IN(R269A/K273A/D256R) (HIV-1 (NL4-3)).
Assay [2] concerns the target His6 tagged recombinant IN(D256R/R262A/R263A) (HIV-1 (NL4-3)).
Assay [3] deals with His6 tagged recombinant IN(R269A/K273A/D256N/D270N) (HIV-1 (NL4-3)).

What is called stoichiometry N is the number of molecules, sites or subunits per partner or assembly. On to “His6 tagged recombinant IN(R269A/K273A/D256R) (enzyme)”, for which the stoichiometry N in assay [1] came to 4. Take “His6 tagged recombinant IN(D256R/R262A/R263A) (enzyme)”: the stoichiometry N in assay [2] worked out at 4.

For the substance “His6 tagged recombinant IN(R269A/K273A/D256N/D270N) (enzyme)”, the stoichiometry N in assay [3] came to 4.

These data come from article PMC9601147.
